Measured values taken from publication PMC5919072.
Each block holds one substance with its values, some of them ahead of it.

Columns and labels:
Test in all cases: SEC-MALS; static light scattering (MiniDAWN TREOS, three angles) inline with size exclusion on Superdex S75 10/300; 100 mM Na-phosphate pH 7.4, 400 mM NaCl; PfMDH-WT injected at 1.0 mg/ml
[1] = molecular target: Wild-type malate dehydrogenase from Plasmodium falciparum (PfMDH-WT), His6-tagged (Plasmodium falciparum)
[2] = molecular target: PfMDH-E18W, His6-tagged (Plasmodium falciparum)
[3] = molecular target: PfMDH-V190W, His6-tagged (Plasmodium falciparum)
[4] = molecular target: PfMDH-E18Q, His6-tagged (Plasmodium falciparum)

stoichiometry N [1]: 4
Substance: Wild-type malate dehydrogenase from Plasmodium falciparum (PfMDH-WT), His6-tagged (enzyme)

Substance: PfMDH-E18W, His6-tagged (enzyme)
stoichiometry N [2]: 2

Substance: PfMDH-V190W, His6-tagged (enzyme)
stoichiometry N [3]: 2

Substance: PfMDH-E18Q, His6-tagged (enzyme)
stoichiometry N [4]: 4
